Data on one molecule can be found in patent US20070014736A1, “Methods of delivering corticotroph-derived glycoprotein hormone” (priority 2005, published 2007).

For test [1], the system named is obese male ob/ob mice. The test is described as follows: Chronic 28-day treatment of ob/ob mice. It counts as in vivo. On the procedure:
Summary: CGH was administered daily for 28 days to obese male ob/ob mice. Mice were also treated with vehicle saline and thyroxine. Data was obtained for food intake, blood glucose, serum insulin, serum lipids, and serum thyroid hormone levels. At sacrifice, animals were examined for changes in liver pathology, and gross histology. […] Evaluation of liver histology sections was performed to examine the effect of CGH-mediated lipolysis on liver steatosis.
11-week old male ob/ob mice were individually caged and given a standard lab chow (4% fat) with free access to food and water. Animals were assigned to a treatment group (n=7−8, average weight 54.3±0.3 g/group), kept on a 12 hour dark cycle (6 PM to 6 AM), and injected each day between 7 and 9 AM. Chow consumed by each animal was weighed twice weekly. All animals received treatments IP in an injection volume of 0.1 ml. CGH was administered at 250 μg/kg, dissolved in sterile saline. Thyroxine (T4) was administered at 1.5 μg/mouse for 4 days, reduced to 1 μg/mouse for 10 days, and returned to 1.5 μg/mouse for the next 14 days. The vehicle controls received sterile saline. TSH was obtained from Genzyme Pharmaceuticals (Thyrogen®, Catalog number 36778; Genzyme Corporation, Cambridge, Mass.), and T4 obtained from Calbiochem, Inc. (EMD Biosciences, catalog number 61205, San Diego, Calif.) All blood draws were performed by retro-orbital puncture under isoflurane anesthesia.
After 25 days of treatment as described above, blood was sampled from all treated animals, serum separated, and analyzed for total T4 by a commercially available kit (Biocheck, Burlingame, Calif.). After 25 days of treatment, the vehicle T4 levels were 5.14±0.08 μg/dl. The CGH-treated group had T4 levels of 7.25±1.2 μg/dl, and the thyroxine-treated group had T4 levels of 9.04±0.47 μg/dl.
Subject animals were fasted for 4 hours at the beginning of the light cycle, and serum was obtained at treatment day 25 under isoflurane anesthesia. Serum Glucose levels were determined with the Cholestech LDX blood analyzer (Cholestech Corporation, Hayward Calif.), and serum insulin levels by ELISA. Serum glucose levels for vehicle and thyroxine treated groups were 306±22 and 295±23 mg/dl, respectively. […] Serum insulin levels for the vehicle and thyroxine treated groups were 33.5±1.8 and 25.9±1.7 ng/ml, respectively.
Subject animals were fasted for 4 hours at the beginning of the light cycle, and serum was obtained at treatment day 25 under isoflurane anesthesia. Triglyceride and total cholesterol levels were determined with the Cholestech LDX blood analyzer. Serum triglyceride levels for the vehicle controls were 143.7±23 mg/dl. […] Total cholesterol levels in the vehicle-treated and thyroxine-treated groups were 198±13 and 194±15 mg/dl, respectively.
Liver sections were dissected from all treatment groups described above and mounted in paraffin following fixation with NBS-formalin. Sections were mounted and stained with hematotoxylin and eosin (H&E) for visualization of hepatic structural changes. The extent of liver steatosis was evaluated on a four-point scale, from 0 to 3, with zero displaying no signs of liver steatosis, and a […], represented pronounced macrovesicular and microvesicular steatosis. […] Average scores given to the groups were vehicle (4), thyroxine (3), and CGH (1.5). […] The CGH treated sections appear to have regained hallmarks of normal hepatocyte architecture in only 28 days of treatment, with areas containing hepatocytes without lipid-laden inclusions in the cytoplasm of the cell.

For test [2], the system named is differentiated 3T3 L1 adipocytes. The test is described as follows: CRE-luciferase reporter assay in differentiated 3T3 L1 adipocytes. It counts as cell-based, murine. From the text: (§1) Differentiated murine 3T3 L1 adipocytes and primary human adipocytes were used to study signal transduction of CGH. 3T3 L1 fibroblasts were differentiated into adipocytes and the cells were transduced with recombinant adenovirus containing a reporter construct, a firefly luciferase gene under the control of cAMP response element (CRE) enhancer sequences. This assay system detects cAMP-mediated gene induction downstream of activation of Gs-coupled G-protein coupled receptors (GPCR's). […] In a separate experiment, undifferentiated 3T3 L1 fibroblasts were transduced with the recombinant adenovirus. […] In another experiment, human primary adipocytes were also transduced with the recombinant adenovirus containing a reporter construct. Treatment of the human adipocytes with isoproterenol produced a 17-fold induction of luciferase expression.
(§2) Cells were cultured at 37° C. in an 8% CO2 humidified incubator. Cells were seeded to collagen-coated 96-well plates (Becton Dickinson, cat. #356407) at a density of 5,000 cells per well. […] Luciferase activity was measured on a microplate luminometer (PerkinElmer Life Sciences, Inc., model LB 96V2R) following automated injection of 40 μl of luciferase assay substrate into each well. […]

Test [3] deals with human primary adipocytes. The test is described as follows: CRE-luciferase reporter assay in human primary adipocytes. It counts as cell-based.
Excerpt: as §1, §2

B1: CGH: heterodimeric protein hormone comprised of alpha subunit GPHA2 and beta subunit GPHB5, recombinantly produced in CHO cells (protein)
chain 1: QEAVIPGCHLHPFNVTVRSDRQGTCQGSHVAQACVGHCESSAFPSRYSVLVASGYRHNITSVSQCCTISGLKKVKVQLQCVGSRREELEIFTARACQCDMCRLSRY
chain 2: ASSGNLRTFVGCAVREFTFLAKKPGCRGLRITTDACWGRCETWEKPILEPPYIEAHHRVCTYNETKQVTVKLPNCAPGVDPFYTYPVAIRCDCGACSTATTECETI
With B1, the “liver steatosis average score” value in test [1] (H&E liver sections, 28 days, n=4) was found to be 1.5. Besides, the “serum total T4 levels” value in test [1] (after 25 days of treatment) was determined as 7.25 ± 1.2 µg/dL. In test [1] (day 25, fasted 4 hours), this molecule displayed a Serum glucose levels of 251 ± 10 mg/dL, a Serum insulin levels of 14.2 ± 3.6 ng/mL, a Serum triglyceride levels of 100 ± 14.7 mg/dL and a Total cholesterol levels of 104 ± 8.8 mg/dL. The Food intake in test [1] (ob/ob mice, CGH 250 μg/kg IP daily, T4 1-1.5 μg/mouse) was 6.3±0.09 grams/day of chow. Besides, in test [2], the “induction of luciferase expression” value was 27 fold. For the same molecule, in test [3], the “induction of luciferase expression / reporter gene” value was found to be 14 fold.
